Measured values reported in patent US20210246166A1 (Bayer, published 2021).
Numbered stars: 1 amine (or outer) side, 2 acyl side, 3 side chain; on linkers, the order of the positions; unused ones are H or OH. Bridge positions count the residues as written; N and C are the ends. Square brackets hold non-standard residues; d marks the D form. Ends that are not written are not given here. X12 = (S)‑(trifluoromethyl)‑L‑cysteine, O=C([C@H](CSC(F)(F)F)N[*:1])[*:2]; Oic = O=C(O)[C@@H]1C[C@@H]2CCCC[C@@H]2N1; Nva(3-Et) = CCC(CC)[C@H](N)C(=O)O; tBuAla = CC(C)(C)C[C@H](N)C(=O)O; 4Pal = N[C@@H](Cc1ccncc1)C(=O)O; Pen = CC(C)(S)[C@H](N)C(=O)O; 3Amb = NCc1cccc(C(=O)O)c1; NMeC = CN[C@@H](CS)C(=O)O; Nva = CCC[C@H](N)C(=O)O; Ac4c = NC1(C(=O)O)CCC1; Sar = CNCC(=O)O

B1: (ACBA)-IC+SRS-((tBu)A)-PPI-(Pen)+I-NH2 (peptide)
peptide: [Ac4c]ICSRS[tBuAla]PPI[Pen]I-NH2
modifications: disulfide 3-11; N-terminus assumed
SMILES: CC[C@H](C)[C@H](NC(=O)[C@H]1NC(=O)[C@H]([C@@H](C)CC)NC(=O)[C@@H]2CCCN2C(=O)[C@@H]2CCCN2C(=O)[C@H](CC(C)(C)C)NC(=O)[C@H](CO)NC(=O)[C@H](CCCNC(=N)N)NC(=O)[C@H](CO)NC(=O)[C@@H](NC(=O)[C@@H](NC(=O)C2(N)CCC2)[C@@H](C)CC)CSSC1(C)C)C(N)=O
B2: ((N-Me)G)-GIC+SRS-((tBu)A)-PPI-(Pen)+IPD-NH2 (peptide)
peptide: [Sar]GICSRS[tBuAla]PPI[Pen]IPD-NH2
modifications: disulfide 4-12; N-terminus assumed
SMILES: CC[C@H](C)[C@H](NC(=O)CNC(=O)CNC)C(=O)N[C@H]1CSSC(C)(C)[C@@H](C(=O)N[C@H](C(=O)N2CCC[C@H]2C(=O)N[C@@H](CC(=O)O)C(N)=O)[C@@H](C)CC)NC(=O)[C@H]([C@@H](C)CC)NC(=O)[C@@H]2CCCN2C(=O)[C@@H]2CCCN2C(=O)[C@H](CC(C)(C)C)NC(=O)[C@H](CO)NC(=O)[C@H](CCCNC(=N)N)NC(=O)[C@H](CO)NC1=O
B3: FIC+SRS-((tBu)A)-PPI-(Pen)+IPD-NH2 (peptide)
peptide: FICSRS[tBuAla]PPI[Pen]IPD-NH2
modifications: disulfide 3-11; N-terminus assumed
SMILES: CC[C@H](C)[C@H](NC(=O)[C@@H](N)Cc1ccccc1)C(=O)N[C@H]1CSSC(C)(C)[C@@H](C(=O)N[C@H](C(=O)N2CCC[C@H]2C(=O)N[C@@H](CC(=O)O)C(N)=O)[C@@H](C)CC)NC(=O)[C@H]([C@@H](C)CC)NC(=O)[C@@H]2CCCN2C(=O)[C@@H]2CCCN2C(=O)[C@H](CC(C)(C)C)NC(=O)[C@H](CO)NC(=O)[C@H](CCCNC(=N)N)NC(=O)[C@H](CO)NC1=O
B4: (4-Pal)-IC+SRS-((tBu)A)-PPI-(Pen)+IPD-NH2 (peptide)
peptide: [4Pal]ICSRS[tBuAla]PPI[Pen]IPD-NH2
modifications: disulfide 3-11; N-terminus assumed
SMILES: CC[C@H](C)[C@H](NC(=O)[C@@H](N)Cc1ccncc1)C(=O)N[C@H]1CSSC(C)(C)[C@@H](C(=O)N[C@H](C(=O)N2CCC[C@H]2C(=O)N[C@@H](CC(=O)O)C(N)=O)[C@@H](C)CC)NC(=O)[C@H]([C@@H](C)CC)NC(=O)[C@@H]2CCCN2C(=O)[C@@H]2CCCN2C(=O)[C@H](CC(C)(C)C)NC(=O)[C@H](CO)NC(=O)[C@H](CCCNC(=N)N)NC(=O)[C@H](CO)NC1=O
B5: ((N-Me)G)-IC+SRSLP-(Oic)-I-(Pen)+IPE-OH (peptide)
peptide: [Sar]ICSRSLP[Oic]I[Pen]IPE-OH
modifications: disulfide 3-11; N-terminus assumed
SMILES: CC[C@H](C)[C@H](NC(=O)CNC)C(=O)N[C@H]1CSSC(C)(C)[C@@H](C(=O)N[C@H](C(=O)N2CCC[C@H]2C(=O)N[C@@H](CCC(=O)O)C(=O)O)[C@@H](C)CC)NC(=O)[C@H]([C@@H](C)CC)NC(=O)[C@@H]2C[C@@H]3CCCC[C@@H]3N2C(=O)[C@@H]2CCCN2C(=O)[C@H](CC(C)C)NC(=O)[C@H](CO)NC(=O)[C@H](CCCNC(=N)N)NC(=O)[C@H](CO)NC1=O
B6: (3-(Aminomethyl)benzoic acid)-IC+SRS-((tBu)A)-PP-(Pen)+IP-NH2 (peptide)
peptide: [3Amb]ICSRS[tBuAla]PP[Pen]IP-NH2
modifications: disulfide 3-10; N-terminus assumed
SMILES: CC[C@H](C)[C@H](NC(=O)c1cccc(CN)c1)C(=O)N[C@H]1CSSC(C)(C)[C@@H](C(=O)N[C@H](C(=O)N2CCC[C@H]2C(N)=O)[C@@H](C)CC)NC(=O)[C@@H]2CCCN2C(=O)[C@@H]2CCCN2C(=O)[C@H](CC(C)(C)C)NC(=O)[C@H](CO)NC(=O)[C@H](CCCNC(=N)N)NC(=O)[C@H](CO)NC1=O
B7: AIC+SRS-((tBu)A)-PPIC+IDD-OH (peptide)
peptide: AICSRS[tBuAla]PPICIDD-OH
modifications: disulfide 3-11; N-terminus assumed
SMILES: CC[C@H](C)[C@H](NC(=O)[C@H](C)N)C(=O)N[C@H]1CSSC[C@@H](C(=O)N[C@H](C(=O)N[C@@H](CC(=O)O)C(=O)N[C@@H](CC(=O)O)C(=O)O)[C@@H](C)CC)NC(=O)[C@H]([C@@H](C)CC)NC(=O)[C@@H]2CCCN2C(=O)[C@@H]2CCCN2C(=O)[C@H](CC(C)(C)C)NC(=O)[C@H](CO)NC(=O)[C@H](CCCNC(=N)N)NC(=O)[C@H](CO)NC1=O
B8: GIC+SRS-((tBu)A)-P-(Oic)-I-((N-Me)C)+IPD-NH2 (peptide)
peptide: GICSRS[tBuAla]P[Oic]I[NMeC]IPD-NH2
modifications: disulfide 3-11; N-terminus assumed
SMILES: CC[C@H](C)[C@H](NC(=O)CN)C(=O)N[C@H]1CSSC[C@@H](C(=O)N[C@H](C(=O)N2CCC[C@H]2C(=O)N[C@@H](CC(=O)O)C(N)=O)[C@@H](C)CC)N(C)C(=O)[C@H]([C@@H](C)CC)NC(=O)[C@@H]2C[C@@H]3CCCC[C@@H]3N2C(=O)[C@@H]2CCCN2C(=O)[C@H](CC(C)(C)C)NC(=O)[C@H](CO)NC(=O)[C@H](CCCNC(=N)N)NC(=O)[C@H](CO)NC1=O
B9: AIC+SRSLPP-((S)-2-amino-3-ethyl-pentanoic acid)-C+IPD-NH2 (peptide)
peptide: AICSRSLPP[Nva(3-Et)]CIPD-NH2
modifications: disulfide 3-11; N-terminus assumed
SMILES: CCC(CC)[C@@H]1NC(=O)[C@@H]2CCCN2C(=O)[C@@H]2CCCN2C(=O)[C@H](CC(C)C)NC(=O)[C@H](CO)NC(=O)[C@H](CCCNC(=N)N)NC(=O)[C@H](CO)NC(=O)[C@@H](NC(=O)[C@@H](NC(=O)[C@H](C)N)[C@@H](C)CC)CSSC[C@@H](C(=O)N[C@H](C(=O)N2CCC[C@H]2C(=O)N[C@@H](CC(=O)O)C(N)=O)[C@@H](C)CC)NC1=O
B10: (Nva)-IC+SRSLPPIC+IPD-NH2 (peptide)
peptide: [Nva]ICSRSLPPICIPD-NH2
modifications: disulfide 3-11; N-terminus assumed
SMILES: CCC[C@H](N)C(=O)N[C@H](C(=O)N[C@H]1CSSC[C@@H](C(=O)N[C@H](C(=O)N2CCC[C@H]2C(=O)N[C@@H](CC(=O)O)C(N)=O)[C@@H](C)CC)NC(=O)[C@H]([C@@H](C)CC)NC(=O)[C@@H]2CCCN2C(=O)[C@@H]2CCCN2C(=O)[C@H](CC(C)C)NC(=O)[C@H](CO)NC(=O)[C@H](CCCNC(=N)N)NC(=O)[C@H](CO)NC1=O)[C@@H](C)CC
B11: ((N-Me)G)-IC+SRS-((S)-(trifluoromethyl)-L-cysteine)-PPI-(Pen)+IP-NH2 (peptide)
peptide: [Sar]ICSRS[X12]PPI[Pen]IP-NH2
modifications: disulfide 3-11; N-terminus assumed
SMILES: CC[C@H](C)[C@H](NC(=O)CNC)C(=O)N[C@H]1CSSC(C)(C)[C@@H](C(=O)N[C@H](C(=O)N2CCC[C@H]2C(N)=O)[C@@H](C)CC)NC(=O)[C@H]([C@@H](C)CC)NC(=O)[C@@H]2CCCN2C(=O)[C@@H]2CCCN2C(=O)[C@H](CSC(F)(F)F)NC(=O)[C@H](CO)NC(=O)[C@H](CCCNC(=N)N)NC(=O)[C@H](CO)NC1=O

biological target: T1, Recombinant human MASP1 enzyme (fragment corresponding to amino acids 297-699, C-terminal His Tag) (human, UniProt P48740 297-699); test: cell-based or functional assay
T1 sequence: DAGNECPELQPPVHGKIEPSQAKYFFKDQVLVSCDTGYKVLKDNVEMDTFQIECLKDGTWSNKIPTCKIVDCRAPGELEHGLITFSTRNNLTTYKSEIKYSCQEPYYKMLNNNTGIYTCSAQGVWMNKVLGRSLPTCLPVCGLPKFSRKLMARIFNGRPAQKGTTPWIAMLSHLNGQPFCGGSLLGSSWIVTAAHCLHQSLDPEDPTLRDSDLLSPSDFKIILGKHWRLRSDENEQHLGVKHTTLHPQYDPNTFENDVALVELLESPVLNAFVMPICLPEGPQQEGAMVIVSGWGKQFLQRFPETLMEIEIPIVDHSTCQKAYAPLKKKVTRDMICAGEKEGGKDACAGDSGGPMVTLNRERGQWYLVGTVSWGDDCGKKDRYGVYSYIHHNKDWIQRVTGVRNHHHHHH

Row | human MASP1 IC50 | Binder
1 | 0.0057 µM | B1
2 | 0.0061 µM | B2
3 | 0.0058 µM | B3
4 | 0.0064 µM | B4
5 | 0.0062 µM | B5
6 | 0.0064 µM | B6
7 | 0.0058 µM | B7
8 | 0.006 µM | B8
9 | 0.0058 µM | B9
10 | 0.0063 µM | B10
11 | 0.0061 µM | B11

biological target: Recombinant human MASP2 enzyme (fragment corresponding to amino acids 297-686, C-terminal His Tag) (human, UniProt O00187 297-686); test: cell-based or functional assay
Sequence (O00187 other isoform, or with tags, fused parts or gaps limits assumed): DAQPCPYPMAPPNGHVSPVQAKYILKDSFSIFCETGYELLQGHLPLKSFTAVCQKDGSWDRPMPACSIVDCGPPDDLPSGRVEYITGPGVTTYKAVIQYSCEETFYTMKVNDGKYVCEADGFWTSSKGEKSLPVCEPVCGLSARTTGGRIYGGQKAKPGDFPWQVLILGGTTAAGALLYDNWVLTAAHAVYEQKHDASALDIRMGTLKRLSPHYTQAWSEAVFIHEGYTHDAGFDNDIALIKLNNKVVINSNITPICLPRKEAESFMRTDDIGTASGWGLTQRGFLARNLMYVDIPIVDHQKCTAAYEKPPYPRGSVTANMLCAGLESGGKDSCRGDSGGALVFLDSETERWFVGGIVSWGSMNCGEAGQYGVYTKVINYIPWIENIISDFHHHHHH

Row | human MASP2 IC50 | Binder
12 | 0.015 µM | B1
13 | 0.17 µM | B2
14 | 0.073 µM | B3
15 | 0.065 µM | B4
16 | 0.18 µM | B5
17 | 0.016 µM | B6
18 | 0.061 µM | B7
19 | 0.74 µM | B8
20 | 0.051 µM | B9
21 | 0.22 µM | B10
22 | 0.027 µM | B11
